B1: N-terminal domain (NTD) of TAR DNA-binding protein 43 (TDP-43) (domain or fragment, UniProt Q13148 1-77, looked up)
chain: MSEYIRVTEDENDEPIEIPSEDDGTVLLSTVTAQFPGACGLRYRNPVSQCMRGVRLVEGILHAPDAGWGNLVYVVNY
notes: whole protein has 414 residues; also called TDP-43 NTD; native NTD; source: purified as previously described [24]

Legend:
[1] = molecular target: TDP-43 NTD NTD (Homo sapiens) (UniProt Q13148); assay: AUC; settings: cited from earlier work
[2] = molecular target: the molecule itself; assay: SEC; 0.5 mg/mL (45 µM) NTD loaded, 0.0% SB3-10, Superdex 200 Increase 10/300 GL, 5 mM sodium phosphate, 50 mM NaCl, 1 mM DTT, pH 7.4, 4 °C; calibration with folded standards

Molecule | Kd [1] | stoichiometry N [2]
TDP-43 NTD NTD (from UniProt Q13148) | 40 µM | 
B1 |  | ~2
